Test results as given in patent US20240270846A1 (published 2024).

Target: T1, CD3 epsilon homodimer protein (UniProt P07766 23-126)
T1 construct: also called CD3 (CD3 epsilon)
Assay: SPR, CD3e homodimer on chip;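 also: surface plasmon resonance at 25 degrees C, antibodies flowed as analyte over CD3 epsilon homodimer amine-coupled to a CM4 chip, running buffer HBS-EP+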

T1 sequence (P07766 23-126): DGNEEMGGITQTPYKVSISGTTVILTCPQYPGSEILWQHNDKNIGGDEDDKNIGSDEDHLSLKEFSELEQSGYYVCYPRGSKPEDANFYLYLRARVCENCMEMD

Row | ratio of amounts bound (altered form / unaltered GLS3000 antibody) | Binder
1 | 0.69 | GLS3000 S27eD one-arm antibody (H chain CE115HA000) (antibody, human IgG1, kappa, L234A L235A, N297A, name in Kabat numbering, one-arm antibody) heavy: QVQLVESGGGVVQPGRSLRLSCAASGFTFSNAWMHWVRQAPGKGLEWVAQIKAKSNNYATYYAESVKGRFTISRDDSKNSLYLQMNSLKTEDTAVYYCRYVHYGAYYGVDAWGQGTTVTVSSASTKGPSVFPLAPSSKSTSGGTAALGCLVKDYFPEPVTVSWNSGALTSGVHTFPAVLQSSGLYSLSSVVTVPSSSLGTQTYICNVNHKPSNTKVDKKVEPKSCDKTHTCPPCPAPEAAGGPSVFLFPPKPKDTLMISRTPEVTCVVVDVSHEDPEVKFNWYVDGVEVHNAKTKPREEQYASTYRVVSVLTVLHQDWLNGKEYKCKVSNKALPAPIEKTISKAKGQPREPQVYTLPPSRCELTKNQVSLSCAVKGFYPSDIAVEWESNGQPENNYKTTPPVLDSDGSFFLVSKLTVDKSRWQQGNVFSCSVMHEALHNHYTQKSLSLSPDYKDDDDK EPKSSDKTHTCPPCPAPELLGGPSVFLFPPKPKDTLMISRTPEVTCVVVDVSHEDPEVKFNWYVDGVEVHNAKTKPREEQYNSTYRVVSVLTVLHQDWLNGKEYKCKVSNKALPAPIEKTISKAKGQPREPQVCTLPPSRDELTKNQVSLWCLVKGFYPSDIAVEWESNGQPENNYKTTPPVLDSDGSFFLYSKLTVDKSRWQQGNVFSCSVMHEALHNRYTQKSLSLSP light: DIVMTQSPLSLPVTPGEPASISCRSSQSLVHDNRNTYLHWYQQKPGQAPRLLIYKVSNRFSGVPDRFSGSGSGTDFTLKISRVEAEDVGVYYCGQGTQVPYTFGQGTKLEIKRTVAAPSVFIFPPSDEQLKSGTASVVCLLNNFYPREAKVQWKVDNALQSGNSQESVTEQDSKDSTYSLSSTLTLSKADYEKHKVYACEVTHQGLSSPVTKSFNRGEC
2 | 1.04 | GLS3000 S27eG one-arm antibody (H chain CE115HA000) (antibody, human IgG1, kappa, L234A L235A, N297A, name in Kabat numbering, one-arm antibody) heavy: QVQLVESGGGVVQPGRSLRLSCAASGFTFSNAWMHWVRQAPGKGLEWVAQIKAKSNNYATYYAESVKGRFTISRDDSKNSLYLQMNSLKTEDTAVYYCRYVHYGAYYGVDAWGQGTTVTVSSASTKGPSVFPLAPSSKSTSGGTAALGCLVKDYFPEPVTVSWNSGALTSGVHTFPAVLQSSGLYSLSSVVTVPSSSLGTQTYICNVNHKPSNTKVDKKVEPKSCDKTHTCPPCPAPEAAGGPSVFLFPPKPKDTLMISRTPEVTCVVVDVSHEDPEVKFNWYVDGVEVHNAKTKPREEQYASTYRVVSVLTVLHQDWLNGKEYKCKVSNKALPAPIEKTISKAKGQPREPQVYTLPPSRCELTKNQVSLSCAVKGFYPSDIAVEWESNGQPENNYKTTPPVLDSDGSFFLVSKLTVDKSRWQQGNVFSCSVMHEALHNHYTQKSLSLSPDYKDDDDK EPKSSDKTHTCPPCPAPELLGGPSVFLFPPKPKDTLMISRTPEVTCVVVDVSHEDPEVKFNWYVDGVEVHNAKTKPREEQYNSTYRVVSVLTVLHQDWLNGKEYKCKVSNKALPAPIEKTISKAKGQPREPQVCTLPPSRDELTKNQVSLWCLVKGFYPSDIAVEWESNGQPENNYKTTPPVLDSDGSFFLYSKLTVDKSRWQQGNVFSCSVMHEALHNRYTQKSLSLSP light: DIVMTQSPLSLPVTPGEPASISCRSSQSLVHGNRNTYLHWYQQKPGQAPRLLIYKVSNRFSGVPDRFSGSGSGTDFTLKISRVEAEDVGVYYCGQGTQVPYTFGQGTKLEIKRTVAAPSVFIFPPSDEQLKSGTASVVCLLNNFYPREAKVQWKVDNALQSGNSQESVTEQDSKDSTYSLSSTLTLSKADYEKHKVYACEVTHQGLSSPVTKSFNRGEC
3 | 1.32 | GLS3000 S27eF one-arm antibody (H chain CE115HA000) (antibody, human IgG1, kappa, L234A L235A, N297A, name in Kabat numbering, one-arm antibody) heavy: QVQLVESGGGVVQPGRSLRLSCAASGFTFSNAWMHWVRQAPGKGLEWVAQIKAKSNNYATYYAESVKGRFTISRDDSKNSLYLQMNSLKTEDTAVYYCRYVHYGAYYGVDAWGQGTTVTVSSASTKGPSVFPLAPSSKSTSGGTAALGCLVKDYFPEPVTVSWNSGALTSGVHTFPAVLQSSGLYSLSSVVTVPSSSLGTQTYICNVNHKPSNTKVDKKVEPKSCDKTHTCPPCPAPEAAGGPSVFLFPPKPKDTLMISRTPEVTCVVVDVSHEDPEVKFNWYVDGVEVHNAKTKPREEQYASTYRVVSVLTVLHQDWLNGKEYKCKVSNKALPAPIEKTISKAKGQPREPQVYTLPPSRCELTKNQVSLSCAVKGFYPSDIAVEWESNGQPENNYKTTPPVLDSDGSFFLVSKLTVDKSRWQQGNVFSCSVMHEALHNHYTQKSLSLSPDYKDDDDK EPKSSDKTHTCPPCPAPELLGGPSVFLFPPKPKDTLMISRTPEVTCVVVDVSHEDPEVKFNWYVDGVEVHNAKTKPREEQYNSTYRVVSVLTVLHQDWLNGKEYKCKVSNKALPAPIEKTISKAKGQPREPQVCTLPPSRDELTKNQVSLWCLVKGFYPSDIAVEWESNGQPENNYKTTPPVLDSDGSFFLYSKLTVDKSRWQQGNVFSCSVMHEALHNRYTQKSLSLSP light: DIVMTQSPLSLPVTPGEPASISCRSSQSLVHFNRNTYLHWYQQKPGQAPRLLIYKVSNRFSGVPDRFSGSGSGTDFTLKISRVEAEDVGVYYCGQGTQVPYTFGQGTKLEIKRTVAAPSVFIFPPSDEQLKSGTASVVCLLNNFYPREAKVQWKVDNALQSGNSQESVTEQDSKDSTYSLSSTLTLSKADYEKHKVYACEVTHQGLSSPVTKSFNRGEC
4 | 0.76 | GLS3000 S27eE one-arm antibody (H chain CE115HA000) (antibody, human IgG1, kappa, L234A L235A, N297A, name in Kabat numbering, one-arm antibody) heavy: QVQLVESGGGVVQPGRSLRLSCAASGFTFSNAWMHWVRQAPGKGLEWVAQIKAKSNNYATYYAESVKGRFTISRDDSKNSLYLQMNSLKTEDTAVYYCRYVHYGAYYGVDAWGQGTTVTVSSASTKGPSVFPLAPSSKSTSGGTAALGCLVKDYFPEPVTVSWNSGALTSGVHTFPAVLQSSGLYSLSSVVTVPSSSLGTQTYICNVNHKPSNTKVDKKVEPKSCDKTHTCPPCPAPEAAGGPSVFLFPPKPKDTLMISRTPEVTCVVVDVSHEDPEVKFNWYVDGVEVHNAKTKPREEQYASTYRVVSVLTVLHQDWLNGKEYKCKVSNKALPAPIEKTISKAKGQPREPQVYTLPPSRCELTKNQVSLSCAVKGFYPSDIAVEWESNGQPENNYKTTPPVLDSDGSFFLVSKLTVDKSRWQQGNVFSCSVMHEALHNHYTQKSLSLSPDYKDDDDK EPKSSDKTHTCPPCPAPELLGGPSVFLFPPKPKDTLMISRTPEVTCVVVDVSHEDPEVKFNWYVDGVEVHNAKTKPREEQYNSTYRVVSVLTVLHQDWLNGKEYKCKVSNKALPAPIEKTISKAKGQPREPQVCTLPPSRDELTKNQVSLWCLVKGFYPSDIAVEWESNGQPENNYKTTPPVLDSDGSFFLYSKLTVDKSRWQQGNVFSCSVMHEALHNRYTQKSLSLSP light: DIVMTQSPLSLPVTPGEPASISCRSSQSLVHENRNTYLHWYQQKPGQAPRLLIYKVSNRFSGVPDRFSGSGSGTDFTLKISRVEAEDVGVYYCGQGTQVPYTFGQGTKLEIKRTVAAPSVFIFPPSDEQLKSGTASVVCLLNNFYPREAKVQWKVDNALQSGNSQESVTEQDSKDSTYSLSSTLTLSKADYEKHKVYACEVTHQGLSSPVTKSFNRGEC
5 | 1.07 | GLS3000 S27eI one-arm antibody (H chain CE115HA000) (antibody, human IgG1, kappa, L234A L235A, N297A, name in Kabat numbering, one-arm antibody) heavy: QVQLVESGGGVVQPGRSLRLSCAASGFTFSNAWMHWVRQAPGKGLEWVAQIKAKSNNYATYYAESVKGRFTISRDDSKNSLYLQMNSLKTEDTAVYYCRYVHYGAYYGVDAWGQGTTVTVSSASTKGPSVFPLAPSSKSTSGGTAALGCLVKDYFPEPVTVSWNSGALTSGVHTFPAVLQSSGLYSLSSVVTVPSSSLGTQTYICNVNHKPSNTKVDKKVEPKSCDKTHTCPPCPAPEAAGGPSVFLFPPKPKDTLMISRTPEVTCVVVDVSHEDPEVKFNWYVDGVEVHNAKTKPREEQYASTYRVVSVLTVLHQDWLNGKEYKCKVSNKALPAPIEKTISKAKGQPREPQVYTLPPSRCELTKNQVSLSCAVKGFYPSDIAVEWESNGQPENNYKTTPPVLDSDGSFFLVSKLTVDKSRWQQGNVFSCSVMHEALHNHYTQKSLSLSPDYKDDDDK EPKSSDKTHTCPPCPAPELLGGPSVFLFPPKPKDTLMISRTPEVTCVVVDVSHEDPEVKFNWYVDGVEVHNAKTKPREEQYNSTYRVVSVLTVLHQDWLNGKEYKCKVSNKALPAPIEKTISKAKGQPREPQVCTLPPSRDELTKNQVSLWCLVKGFYPSDIAVEWESNGQPENNYKTTPPVLDSDGSFFLYSKLTVDKSRWQQGNVFSCSVMHEALHNRYTQKSLSLSP light: DIVMTQSPLSLPVTPGEPASISCRSSQSLVHINRNTYLHWYQQKPGQAPRLLIYKVSNRFSGVPDRFSGSGSGTDFTLKISRVEAEDVGVYYCGQGTQVPYTFGQGTKLEIKRTVAAPSVFIFPPSDEQLKSGTASVVCLLNNFYPREAKVQWKVDNALQSGNSQESVTEQDSKDSTYSLSSTLTLSKADYEKHKVYACEVTHQGLSSPVTKSFNRGEC
6 | 1.23 | GLS3000 S27eH one-arm antibody (H chain CE115HA000) (antibody, human IgG1, kappa, L234A L235A, N297A, name in Kabat numbering, one-arm antibody) heavy: QVQLVESGGGVVQPGRSLRLSCAASGFTFSNAWMHWVRQAPGKGLEWVAQIKAKSNNYATYYAESVKGRFTISRDDSKNSLYLQMNSLKTEDTAVYYCRYVHYGAYYGVDAWGQGTTVTVSSASTKGPSVFPLAPSSKSTSGGTAALGCLVKDYFPEPVTVSWNSGALTSGVHTFPAVLQSSGLYSLSSVVTVPSSSLGTQTYICNVNHKPSNTKVDKKVEPKSCDKTHTCPPCPAPEAAGGPSVFLFPPKPKDTLMISRTPEVTCVVVDVSHEDPEVKFNWYVDGVEVHNAKTKPREEQYASTYRVVSVLTVLHQDWLNGKEYKCKVSNKALPAPIEKTISKAKGQPREPQVYTLPPSRCELTKNQVSLSCAVKGFYPSDIAVEWESNGQPENNYKTTPPVLDSDGSFFLVSKLTVDKSRWQQGNVFSCSVMHEALHNHYTQKSLSLSPDYKDDDDK EPKSSDKTHTCPPCPAPELLGGPSVFLFPPKPKDTLMISRTPEVTCVVVDVSHEDPEVKFNWYVDGVEVHNAKTKPREEQYNSTYRVVSVLTVLHQDWLNGKEYKCKVSNKALPAPIEKTISKAKGQPREPQVCTLPPSRDELTKNQVSLWCLVKGFYPSDIAVEWESNGQPENNYKTTPPVLDSDGSFFLYSKLTVDKSRWQQGNVFSCSVMHEALHNRYTQKSLSLSP light: DIVMTQSPLSLPVTPGEPASISCRSSQSLVHHNRNTYLHWYQQKPGQAPRLLIYKVSNRFSGVPDRFSGSGSGTDFTLKISRVEAEDVGVYYCGQGTQVPYTFGQGTKLEIKRTVAAPSVFIFPPSDEQLKSGTASVVCLLNNFYPREAKVQWKVDNALQSGNSQESVTEQDSKDSTYSLSSTLTLSKADYEKHKVYACEVTHQGLSSPVTKSFNRGEC
